doi:10.1101/2023.10.31.564985, “Cryo-EM structure of the Spo11 core complex bound to DNA” (bioRxiv, 2023)

B1: Rec104 (subunit of the purified S. cerevisiae Spo11 core complex) (natural protein)
chain: MSIEEEDTNKITCTQDFLHQYFVTERVSIQFGLNNKTVKRINKDEFDKAVNCIMSWTNYPKPGLKRTASTYLLSNSFKKSATVSLPFILGDPVCMPKRVESNNNDTCLLYSDTLYDDPLIQRNDQAGDEIEDEFSFTLLRSEVNEIRPISSSSTAQILQSDYSALMYERQASNGSIFQFSSP
notes: Rec104, S. cerevisiae; source: Sf9 cells, baculovirus coinfection with Spo11, Rec102 and Ski8; purified as the core complex (NiNTA, Anti-Flag M2, Superdex 200)
B2: Rec102 (subunit of the purified S. cerevisiae Spo11 core complex) (natural protein)
chain: MARDITFLTVFLESCGAVNNDEAGKLLSAWTSTVRIEGPESTDSNSLYIPLLPPGMLKIKLNFKMNDRLVTEEQELFTKLREIVGSSIRFWEEQLFYQVQDVSTIENHVILSLKCTILTDAQISTFISKPRELHTHAKGYPEIYYLSELSTTVNFFSKEGNYVEISQVIPHFNEYFSSLIVSQLEFEYPMVFSMISRLRLKWQQSSLAPISYALTSNSVLLPIMLNMIAQDKSSTTAYQILCRRRGPPIQNFQIFSLPAVTYNK
notes: Rec102, S. cerevisiae; source: Sf9 cells, baculovirus coinfection with Spo11, Rec104 and Ski8; purified as the core complex (NiNTA, Anti-Flag M2, Superdex 200)
B3: Ski8 (subunit of the purified S. cerevisiae Spo11 core complex) (natural protein)
chain: MSKVFIATANAGKAHDADIFSVSACNSFTVSCSGDGYLKVWDNKLLDNENPKDKSYSHFVHKSGLHHVDVLQAIERDAFELCLVATTSFSGDLLFYRITREDETKKVIFEKLDLLDSDMKKHSFWALKWGASNDRLLSHRLVATDVKGTTYIWKFHPFADESNSLTLNWSPTLELQGTVESPMTPSQFATSVDISERGLIATGFNNGTVQISELSTLRPLYNFESQHSMINNSNSIRSVKFSPQGSLLAIAHDSNSFGCITLYETEFGERIGSLSVPTHSSQASLGEFAHSSWVMSLSFNDSGETLCSAGWDGKLRFWDVKTKERITTLNMHCDDIEIEEDILAVDEHGDSLAEPGVFDVKFLKKGWRSGMGADLNESLCCVCLDRSIRWFREAGGK
notes: Ski8, WD-repeat protein, S. cerevisiae; source: Sf9 cells, baculovirus coinfection with Spo11, Rec102 and Rec104; purified as the core complex (NiNTA, Anti-Flag M2, Superdex 200)

Columns and labels:
[1] = target: B2; assay: cryo-EM structure; core complex (~0.2 mg/ml) incubated with 23-bp hairpin DNA with a two-nucleotide 5' overhang, molar ratio 1:2, 25 mM HEPES-NaOH pH 7.5, 150 mM NaCl, 5 mM MgCl2, 2 mM DTT, 2% glycerol, 1 hr on ice; 3.7 Å; settings: both partners purified
[2] = target: T1, Spo11 (subunit of the purified S. cerevisiae Spo11 core complex) (S. cerevisiae, UniProt P23179 1-392); assay: as above; settings: both partners purified
T1 construct: Spo11, S. cerevisiae; The complex was purified on NiNTA and anti-Flag resin; Surmise: the tags are on Spo11; source: Sf9 cells, baculovirus coinfection with Rec102, Rec104 and Ski8; purified as the core complex (NiNTA, Anti-Flag M2, Superdex 200)
T1 sequence: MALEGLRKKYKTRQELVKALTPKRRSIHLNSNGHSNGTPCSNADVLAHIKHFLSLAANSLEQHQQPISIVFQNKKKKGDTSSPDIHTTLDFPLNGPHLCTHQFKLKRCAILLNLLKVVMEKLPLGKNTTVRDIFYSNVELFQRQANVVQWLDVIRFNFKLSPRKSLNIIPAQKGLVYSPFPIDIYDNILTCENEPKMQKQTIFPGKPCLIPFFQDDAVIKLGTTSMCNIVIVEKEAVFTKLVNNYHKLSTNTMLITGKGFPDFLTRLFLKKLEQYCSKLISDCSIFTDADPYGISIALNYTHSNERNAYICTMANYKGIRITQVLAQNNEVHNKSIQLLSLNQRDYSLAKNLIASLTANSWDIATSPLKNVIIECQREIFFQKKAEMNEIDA

Row | Binder | stoichiometry N [1] | stoichiometry N [2]
1 | B1 | 1 | 1
2 | B2 | – | 1
3 | B3 | – | 1
